Substrate in series [1]: C=CC=C(O)C(=O)O
Description: UV spectrophotometric tautomerase assay, steady state. The format is biochemical, Helicobacter pylori. As to conditions: reaction 3 -> 6, 20 mM sodium phosphate, pH 7.3, 23 °C.

Substrate in series [2]: C=CC=C(O)C(=O)O
The description is as above. In kind it is biochemical, Archaeoglobus fulgidus. The settings on record: reaction 3 -> 6, 20 mM sodium phosphate, pH 7.3, 23 °C.

B1: HpDmpI (Helicobacter pylori 26695) (protein)
chain: PFINIKLVPENGGPTNEQKQQLIEGVSDLMVKVLNKNKASIVVIIDEVDSNNYGLGGESVHHLRQKN
The Km is the concentration of substrate that gives half-maximal velocity. In general, kcat refers to the maximal rate divided by the concentration of active sites. The term kcat/Km denotes the second-order rate constant that governs catalysis at low substrate concentration. Consider B1, for which, in series [1], the Km was 190 ± 40 µM, the kcat was found to be 2.5 ± 0.3 s⁻¹ and the kcat/Km is 13000 M⁻¹ s⁻¹.

B2: AfDmpI (Archaeoglobus fulgidus DSM 4304) (protein)
chain: PVLIVYGPKLDVGKKREFVERLTSVAAEIYGMDRSAITILIHEPPAENVGVGGKLIADRERE
As for B2, in series [2], the Km was found to be 90 ± 30 µM, the kcat was 0.1 ± 0.02 s⁻¹ and the kcat/Km came out at 1100 M⁻¹ s⁻¹.

For the origin of these results see PMC2963697.
